In the domain aggregation screens of Martell et al. (2025):

Assay: soluble fraction after stress (log2 fold change); higher = more stays soluble; pooled small domains, quantitative proteomics
Settings: stress: pH 4
How it was run: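 Values are on a log2 scale, where higher means more of the domain stayed soluble after pH 4 stress. They are fold changes in the soluble amount of each domain from pooled custom libraries, measured by high-throughput quantitative proteomics. The fold change is taken to reflect aggregation propensity.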

Sequence	soluble fraction (log2)
HMDKESQTMFRLLTGVSGVGPKVGLAILSVLSPDRVVLAISAGDHKAFTAASGVGPKLGQRIVLELKDKVG	-0.557
HMEDYYKEDYYTEVLKIPKEYIKGFQYYLIEDAEFVNALNAKNKTMTSFLAKKLASDYIEIIHQEQ	-1.44
HMGDHYTALGLSIDATPEEIRSAYFLAARRSHPDANPDAQTTEWFLRVQEAYDILSNPRRRAEYDASLP	-1.46
HMDRASGEEEALKEAEDAISRVWEFDGPVELNPQNSYLRRLQHELASRYNVKSVSIGQEPNRRVVYYK	-0.428
HMLHEFSGVVVSILADTGPSTLKQLHRSLISSDVKMDEKELMQILDEALSSGSVTSHRKGRYLYYSANK	-0.399
HMTTYVNGSWSGWNGSTVVKLTDGSVWRQAEYHYEYHYAYRPQARLERDELFVEGMSRGVRV	-0.754
HMLPSWPGVSEFEVARLLRRGRARGSLTLDEVIDVVRDAELTSELIAGIRSSLRAEGIDFEET	-1.85
HMFNVKAYEKAVKSYITKRKPLGEALDEEIMDELSVKFGIVDDALEDLFKQIQDAGISIVDKDGNPSPLAL	-1.78
HMKKTETVRFTTNVTHGTKIKETDVEVVKISNSALPDKVVKNKTEVIGKYATADLFKGDFATENKVTD	0.192
HMRSGFAFSEEEIKHLDNIVSPLLIKGQSIHHISIFHKDEVMMSERTLYSYVNNGLFSARNIDMPRTVRMR	0.218
HMRSPVDALSNRELQVLQMVGRGLSSRQVAEALHLSVKTVEAHRQRIKGKLGLRTGAQLVQFAANWVTG	-0.182
HMSLIDLLQLNRKSKKLTLMNLVEMTGLSYGKVYRIFNGGIDKPTPDSLKLLAKALQLDYSYLFHKAGYL	0.266
HMSNPPLPFLAKTKVSWTGEQDGDLGFLENEVVKVFHVVDELWWQGSLSRNGAEGIFPRDFVEVISAP	-1.27
HMTNVDELIGKEAVVVKEIRPYTTGEVKLDGKVWRAMSESKQVYKVDEIVTVLRIEGVTMII	-0.142
HMREEFIGVLDGKVAIFHGRPERKGPLKEVTAIEVDKLPRQEQADLEKGLVIRTDKEKLQLMEGLAALLD	-0.171
HMNELGSLIKRKREELGLSQEELARILGYKHKSSINKIELGLADVPRTKVPAFAKALGMTPVEFS	0.063
HMVEVTTDEITRPGAMVSGSVTFSDGVKAIWLIDEYGRPGLEPETPGYQPSESDLSEFEKHLRALLQ	-0.648
HMDSDRAARLSSLTPQQFRVLRMVSEGQLNKQIAYQLNISEATVKSHVSAILQKLGVNSRTQAVILATRLD	0.147
HMQDNLKKYMDKLSQRDAELIVYKYLWNMSEKEISEMFHIKQEQVHVYVGRAKKRLFKIIKKEME	0.111
HMNMMIIHVNGEKYSFQEPITISELILKLELDSRKIAIEYNLEILPRSLFEITSIKNGDKIEIVHFI	-0.892
HMRHDSEGYYRLIGVPPDADDAELKEAAKKRLMEAHPDHGGSEDEFVEVYRAYRTLTDPSARAEYDARP	-0.133
HMKREETLKALATKNANYVARSGRRYSFEPMNPYERRIIHTAVQEIEGVTSRSIGSGMDRRVLIEPEGGV	-0.234
HMLSVNREQVEQSLKQEWGFDYDKNLRAAQRAIDVYGDDDLKLLLNGPTGNDPAIVKLFARLGGEVTEE	-0.813
HMRFSYLNIETRKDISSLINKSEITHSSYNNNEYLYKIKSKKTDDFKDLISLIDEKDLISYSIDS	0.258
HMKIERKGDESYLSFVERATSALSDGLIDYQQWGRAVVGEDLYSEENTRRIAKFFAQFIQNLEND	-1.6
HMVSKSDVQRALEKVEPVLRKLGGSTVEKVRVMARQATLVFEMLKSWWKGEIDLPWKTVAAMTVTLLYL	-0.322

Sequence	soluble fraction (log2)
HMDSGLLSAREREVAGLVLSGMTYAEIGEAIFISPRTAEHHIARIRRRLGATSRTDLIAKLQAIVGID	-1.42
HMTNYREILRLRSLGLNHSRIAESMGISRPTVIAALQRAQTQELNWQAAESLSDIDLAQRLNP	-0.2
HMRNMRKLWIARINAAARMNDISYSKLMHGLKLANVEINRKMLSEMAIDDPKSFTALVETAKKALNG	0.303
HMLILTWNYPYEYPMMMRSFLQEIGISRTFLAHIKSNGELLINGRHEIVLKTLQPGDVLTMVIPPSG	-0.78
HMLAEEDRRRAERPGLDGNAVMVHLGIGPGRHVGEALAFLLEVRRSEGDLAVAELKSRIDAWWADR	-1.49
HMLHPLLWAVDEPTPVTVRTRPEYVPDVVRWLMQPESQREHDGVVDLRYTVTHRAAFRSRIYVLGTRVTIP	0.17
HMSSANIKLDPLERQATQQIINNIKRKYPNATIENLQEVANDAIATMRQPEFSNYTVDKFVSYFLSM	-0.429
HMIQSEQIPFSKFLKEVDSGRVVQVEIQGNNINGVLSDGSKFKTYSPNYPELVGKLSDKGVSIVASPV	0.0829
HMIMLDRILKIMDYNKFTPSEFADVLEIDRSRLSHILNGRNKPSLEIVMKILEKFPEISSDWLLFGSGNML	-2.01
HMAEERVLSVPQSLAGERLDAALASLMPDYSRSRLASWIKEGLVTVDGAGAMPKQKLWGGETLRVQAQPT	0.0973
HMDTGPISGQVEADRVEVHGHLDGKISAQNVVVGQTGVVKGDIEFGENLRTEEGADIEGYIK	0.22
HMDSGVPEWLASALRASPVAWKNFLALPPSHQRRYVGWISSARRDETRNRRIAEAISLLVEHKRLG	0.0211
HMDIYENIDKELSKQGKSRRKLAIAAGIPPSTFQSMMERKRGLSVENLRKIAEVLNLKWYDLL	0.135
HMKPSVEIKVNGGTGAGVVKKGGSITVTANEPAEGKVFTGWQDESGKIVSTQKEYTFTVAEGTTLTAVYED	-0.417
HMKVDLSEEEKTILELLKKESPQELETIKAASTLSNKKWDKAIKGLRKHNLAKVNKTDDGLFVELE	0.105
HMNVDIVEITKNSSPNQISKVIDIGAIQIVEDLMSFGIMKAIDTPLEDSEIEQLLEKYNLIVDLIE	-2.19
HMNKADFLRKLDRELSVLDQEERKEILSFYEERFYTGTNYENKTELDIINELENPEIIAKNVLEEYGV	-1.45
HMSNIAQRLVLENALAKLNQEQQTIIDLRIIKGYSVAETARLLGKTESAVRTAQYRALKELAGILEED	-0.0342
HMAEVAFEEQNIEQISNLLLRIQAIFAELMTALDKEKGGEIADNLERLYVFFLEKLGDANVRKDPAP	-0.135
HMEQMSPYPNPSKGKIQFHNQEPMDIKVFNSLGQIVFEQRILSRAILDLSRLSPGQYIVQAGEQKNIWIK	-0.293
HMSVDIIPGKADQKVRLIHDPAIVGVTTGGVKTAGPHTLIQIELGPNERPYKRLSLLELIPEG	0.00535
HMDYENGTVKWFNTKKGYGFITRENGEDLFVHFRNIKGRGRRSLNDGEPVTFVVIEGDKGLQADQVSA	-0.754
HMDESIPVITYKDSVYANPKAFADAHKLPYKSLHNALSKARKEGKVRFMYKQYNFHLDNNGYIVAVS	-0.195
HMYSYSFTSSEGSTFEGQLIRVEESQVTILRYADQKEFSIPKSRFIEADQVYFERWAIENPQL	-2.88
HMNDAARQTTDILQHVRSSGSISFRDLWRLFMPFMAYRDFDAAVKSLVAAGHIATTENERKELHLIAF	-1.42
HMSSVMMPDLTGESAIVAMERLQQLGLLPKVEEVDSYREPGIVLEQLPRAGEKIKRGRIAILKVSS	-0.131

Sequence	soluble fraction (log2)
HMPRSLGADLRAIRKGRRLTLTDMAEALDRSVGWVSQVERDISTPSISDLRRMAEILDVPVSLLFG	-1.59
HMFSNATISGLKAGALVRVYNISGVAVSTLTADAEGKVSVDLNNLPKGVYILSTPSKSFKVLN	0.176
HMNKTLTEQIYDELKSAIIELELKPGEFVTEEYLAEQLGVSRTPLKSAISKLIFEGLMAYEVGKGTYIS	-1.32
HMERVIYLLNGREVPAAEIRAAEPEALTVDRFYSSENLPAEYRDRNPELVVAFTAEEPLRHY	-0.559
HMARPLHVDALIHLGTEIGSRVGGAHAGPHLLVAGHSPMSELVYARLLGIPTLGWMRGQLTFVNLSK	0.108
HMIRDVDYNTFVSMVQEGKVGQVEIQEQNNRILFTDKDERTVYKTAMVPDSDLISRLLEAGVSTS	-0.737
HMFLTPLEEARLVIEEIVIPKNIAVDLSPRPSALRKQQHELIAHYQLKSFSVGNERTKRLRILPKVI	-0.46
HMGVLGVDALAAAAEVSVDTVRYYQHLGLLEPPRREGRRAVYGPSHLARMGEIRRLAAAGFTLDQIRQLAE	-1.62
HMEYKYNPADYPYPLNEDIEKVYSAYREKSIGKLEAAVQNLYYTLKQARRDNILSDVKVNEMQQYFLALRN	0.0584
HMLPVDALFAQHPALIVTLGQTEKLKHGAAIRDWHFADGTYRVYSETGEFLLLGTVKGQILTTVKSFFE	-0.828
HMSENDTILAKFASIINNKSLELVIFPDTAYLKGQVSTPEDKARAETVAQSLLGSKPLISLIEFE	-0.167
HMLQESDPEALRGIVKSVLVDHAAVAEEYRAGKQSVLQFLVGQGMKASKGAGNPGLIRDLMLEEL	-0.184
HMAVTKVKVITESSNLNIRKGPGTDQPIVGKAAHHEIITLVNKSNDQWWLVRTNDGEEGYSYSRYLEPVT	-0.153
HMKPATSITFIPSERPDLVEQLSKITFDKKDSLYENYINLNWLTFEAISVYMREGDIIGFST	-0.305
HMNYEFLEKIGFSSNEAKVYGTLIKHKVLNGYEIAKLSGVARSLVYEVINRLVAKGAVIRIDGEPNFYKP	-0.236
HMQVSDAAQLAEVVKTVLAENPAAVGDYRKGKKAAIGFLLGQVMRHMRGTANPAVARQLLEQALEDE	0.231
HMATVELELKPEELRAGMILTKDLISGTGMMLLNKGVTLDNVKVEAIQRYYQLDPPLHGVFALVHGK	-0.896
HMDETFTITFDPNGGTLNGSKTKTVSLGDIVYGKLPTASKTGYSFIGWFTEKEGGEQISSATKIIASDLTL	-0.204
HMDRRIDIANAVKTALGSLPERQKTAIVLVHYEGFSGAETAKLLGISVEAVESLLARARRNLRQTLGP	-0.586
HMATGTVKWFNPNKGFGFIQQDDASKDVFVHSNELNGVYINEGDKVEFDVVETEKGLSAQNIKK	0.0939
HMDHFFSKYDSIVNHTVQKKETLFGISKKYGLTINEVIKFNPGIQIDKLKRRSVLIIPLMKKN	-0.0453
HMLTLTNREKQVLVYIAKGHQVAQIAYELKLSGHTINGYIKTIYQKLHISSRAEAALLAQQYGL	-0.138
HMQSANQLIKLSRKRKGLTQQELADQAGVSLRTVQRIEKGTEEISGFSLKQISQILEIPLEQLIM	-0.652
HMTLKTISLTEAIKNTNEGNYSKLVLDGNELTITEQGKETPSLKTYTEPGTSLKEQGFDLSKVEFEAREQS	-0.011
